Reference: paper PMC12140327, “Structural and Biochemical Characterization of a Widespread Enterobacterial Peroxidase Encapsulin” (Advanced Science, 2025)
Values joined by “and” are separate entries in the source; they are usually repeats but may differ in a detail not shown here. Equal values may be shown once.

Experiments:
EncDyP [1] = target: T1, EncDyP (Escherichia coli, UniProt A0A5C9AJY8); assay: ABTS oxidation at […] nm, plate reader; type: biochemical; conditions: H2O2 as co-substrate; 50 mM phosphate citrate pH 4.6-7.6; room temperature
T1 construct: gene FPI65_30880; DyP-loaded T=1 encapsulin shell (60 Enc, about 3-5 DyP hexamers per shell); staggered co-expression in E. coli BL21(DE3), DyP in pCDFDuet-1, Enc in pBAD/HisA; no tag stated; DyP C-terminal residue K348; with Type 1 encapsulin shell protein

EncDyP [2] = target: T1, EncDyP; assay: in-gel peroxidase activity stain (native PAGE, ferricyanide); type: biochemical; conditions: H2O2 0.003%; DAB in Tris-saline pH 7.5
[3] = target: encapsulin shell protein (Enc) of the enterobacterial DyP encapsulin operon (E. coli); assay: cryo-EM 2D class averages after shell subtraction; purified EncDyP from a two-gene operon under the T7 promoter
[4] = target: encapsulin shell protein (Enc) of the enterobacterial DyP encapsulin operon (E. coli); assay: cryo-EM 2D class averages after shell subtraction; purified EncDyP from staggered expression of DyP (PT7) and Enc (PBAD)
[5] = target: encapsulin shell protein (Enc) of the enterobacterial DyP encapsulin operon (E. coli); assay: cryo-EM structure; purified EncDyP from staggered co-expression, 2.8 mg/mL in 150 mM NaCl, 20 mM Tris pH 7.5; icosahedral symmetry imposed
[6] = target: free His6-tagged Dye-decolorizing peroxidase (DyP); assay: SEC; Superdex S-200, 150 mM NaCl, 20 mM Tris pH 7.5; heme followed by absorption at 404 nm
[7] = target: free His6-tagged Dye-decolorizing peroxidase (DyP); assay: cryo-EM structure; purified free DyP, 0.5 mg/mL in 150 mM NaCl, 20 mM Tris pH 7.5; D3 symmetry imposed

For `CCn1c(=NN=c2sc3cc(S(=O)(=O)O)ccc3n2CC)sc2cc(S(=O)(=O)O)ccc21` [ABTS], the “ABTS oxidation at 420 nm, plate reader” value (EncDyP [1]) was “Peroxidase activity increased at a comparable rate for both free and encapsulated DyP”.

In the case of `Nc1ccc(-c2ccc(N)c(N)c2)cc1N` [DAB], the “in-gel peroxidase activity stain (native PAGE, ferricyanide)” value (EncDyP [2]) is reported as “in‐gel peroxidase activity staining using ferricyanide which confirmed the encapsulation of catalytically active DyP”.

With “Dye-decolorizing peroxidase (DyP) cargo, co-expressed with Enc and encapsulated (enzyme)” the DyP hexamers per shell (hexamer per shell) [3] was < 1 and the DyP hexamers per shell (DyP hexamers per shell) [4] was 3 and 5.

With “encapsulin shell protein (Enc) of the enterobacterial DyP encapsulin operon (natural protein)” the stoichiometry N [5] was 60.

For “free His6-tagged Dye-decolorizing peroxidase (DyP) (enzyme)”, the stoichiometry N [6] was 6 and the stoichiometry N [7] was 6.
